Reference: the supplement of paper PMC12764529
± gives the half width of the 95% confidence interval.

Assays:
[1] = folding stability dG unfold from trypsin proteolysis; higher = more stable
In short: (§1)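 Sequencing followed digestion of designed mini-proteins with trypsin and chymotrypsin, each at 11 concentrations in threefold dilutions together with a no-protease condition. The mini-proteins were under 80 residues, had no cysteine, sat in a PA-tagged cDNA display construct, and were kept only if AlphaFold2 dimer inter-PAE was above 15. From the counts, Bayesian fitting gave K50, and unfolding free energy was derived against a sequence-predicted unfolded-state K50 and a shared folded-state K50, per protease or combined.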

[2] = folding stability dG unfold (combined trypsin and chymotrypsin); higher = more stable
In short: as §1

[3] = folding stability dG unfold from chymotrypsin proteolysis; higher = more stable
In short: as §1

With “SAGMKITVKAVLKKGEKEYEVEFEADSLEEIIGAILELYEKLNFDELRVKIKIGDKEYEIELPFLIPDESAG [r5_946_TrMRF]” the “folding stability dG unfold” value [1] was 4.28 ± 0.41 kcal/mol, the “folding stability dG unfold” value [2] was 4.24 ± 0.94 kcal/mol and the “folding stability dG unfold” value [3] was 4.2 ± 0.68 kcal/mol.

In the case of “SAGMKKLPSEEERKKAEELAKKGELVIIIRLKNGEKLVIVVKSEEELKELLKKLPLEIEEIYVFKVKKKSAG [r5_481_TrROS_Hall]”, the “folding stability dG unfold” value [1] is reported as 1.72 ± 0.028 kcal/mol, the “folding stability dG unfold” value [2] is reported as 2.07 ± 0.16 kcal/mol and the “folding stability dG unfold” value [3] is reported as 2.26 ± 0.049 kcal/mol.

For “SAGMKKTITIKIEVPEKPIRIIVEKNGKKEEITIKPGETVTIEIELEPGETLRIRIVNEDGEEFEFEIKSAG [r5_187_TrROS_Hall]”, the “folding stability dG unfold” value [1] was 4.15 ± 0.3 kcal/mol, the “folding stability dG unfold” value [2] was 3.68 ± 0.28 kcal/mol and the “folding stability dG unfold” value [3] was 3.45 ± 0.12 kcal/mol.

For “SAGMKKVEIVEEVKDPETNEPVILVRDKDTGELVKFHPNGKVTIYDLNDPNKAKVFEAKISDVLEELANSAG [r5_491_TrMRF]”, the “folding stability dG unfold” value [1] was 0.622 ± 0.071 kcal/mol, the “folding stability dG unfold” value [2] was 0.847 ± 0.21 kcal/mol and the “folding stability dG unfold” value [3] was 1.28 ± 0.19 kcal/mol.

With “SAGMKLTVTITDPATGKTYTITVKPGGETTVTNGSSTTSISIPTSDPKKVEELAEEIEPKGYTATITLESAG [r5_791_JUSTAS]” the “folding stability dG unfold” value [1] was 1.17 ± 0.018 kcal/mol, the “folding stability dG unfold” value [2] was 1.3 ± 0.086 kcal/mol and the “folding stability dG unfold” value [3] was 1.36 ± 0.17 kcal/mol.

With “SAGMKPLSDPEAQELAKEVAEKGYLVYTLKYPDGTVITVVSKSEEEVEALLEKSPYPIKEIVIIPPEKPSAG [r5_481_JUSTAS]” the “folding stability dG unfold” value [1] was 1.16 ± 0.082 kcal/mol, the “folding stability dG unfold” value [2] was 1.48 ± 0.12 kcal/mol and the “folding stability dG unfold” value [3] was 1.74 ± 0.098 kcal/mol.

With “SAGMKSLTITETVTDPNSDNPITIITDPVTGKVIKLYPDGTATVYDPNNPNKSTTYKMSPEEVIEKMSSSAG [r5_491_JUSTAS]” the “folding stability dG unfold” value [1] was 0.0921 ± 0.053 kcal/mol, the “folding stability dG unfold” value [2] was 0.673 ± 0.061 kcal/mol and the “folding stability dG unfold” value [3] was 0.967 ± 0.088 kcal/mol.

For “SAGMKTYTITVPASEAEEAAEKAAEEIKKELGLPDSDTVEVTVTSYDPKTGTVTITITVTRPLPGGLSLSAG [r5_537_JUSTAS]”, the “folding stability dG unfold” value [1] was 2.74 ± 0.13 kcal/mol, the “folding stability dG unfold” value [2] was 2.19 ± 0.2 kcal/mol and the “folding stability dG unfold” value [3] was 1.76 ± 0.084 kcal/mol.

With “SAGMKVPVTVKMKAEKEEELEKVIKEIKEETGFEFEVEKNPETKEYTVKVYATPEVVEILKKKGFDVESAGG [r19_306_TrMRF]” the “folding stability dG unfold” value [1] was 1.9 ± 0.14 kcal/mol, the “folding stability dG unfold” value [2] was 2.77 ± 0.24 kcal/mol and the “folding stability dG unfold” value [3] was 3.2 ± 0.081 kcal/mol.

In the case of “SAGMKYTAEVKVKEKDKEIDVTVSDDATFTDPEGKETTFKIGSEEELKKALEEIFPEKYPYEILSVKVLSAG [r14_41_JUSTAS]”, the “folding stability dG unfold” value [1] is reported as -0.65 ± 0.47 kcal/mol, the “folding stability dG unfold” value [2] is reported as -0.0975 ± 0.2 kcal/mol and the “folding stability dG unfold” value [3] is reported as 0.156 ± 0.18 kcal/mol.

In the case of “SAGMLEISSDVLKALGIPVGATAEEVKERIQRRLEELGFEVEIPSVVIEELDPETGRVGVRIDLDLRPPSAG [r5_23_TrMRF]”, the “folding stability dG unfold” value [1] is reported as 3.05 ± 0.18 kcal/mol, the “folding stability dG unfold” value [2] is reported as 2.5 ± 0.23 kcal/mol and the “folding stability dG unfold” value [3] is reported as 2.23 ± 0.35 kcal/mol.

In the case of “SAGMLKVKIKIEIEKDGKKIELEKEIEAESEEELLKAAEELAKELEKKGIKIKKIEVEVEKIPEPEEEESAG [r5_660_TrROS_Hall]”, the “folding stability dG unfold” value [1] is reported as 2.04 ± 0.12 kcal/mol, the “folding stability dG unfold” value [2] is reported as 2.5 ± 0.12 kcal/mol and the “folding stability dG unfold” value [3] is reported as 2.77 ± 0.055 kcal/mol.

With “SAGMLSSETVPFPDSEITIEYDPETGTVKITTTTTTSSPSLDYRTGKPGSVSSSTTTSFEVEAEPGAELSAG [r5_195_JUSTAS]” the “folding stability dG unfold” value [1] was 0.0129 ± 0.076 kcal/mol, the “folding stability dG unfold” value [2] was 0.254 ± 0.18 kcal/mol and the “folding stability dG unfold” value [3] was 0.323 ± 0.17 kcal/mol.

With “SAGMLTYRFTVPAEEAEEAAEELAETLRRELGLPEEVKVEVKVVEYDPETGLVTVEAVVYRPLPEGVEPSAG [r5_537_TrMRF]” the “folding stability dG unfold” value [1] was 4.21 ± 0.16 kcal/mol, the “folding stability dG unfold” value [2] was 4.5 ± 0.14 kcal/mol and the “folding stability dG unfold” value [3] was 4.44 ± 0.11 kcal/mol.

With “SAGMMKFPPGAKIKIVNKETGEEKEITLPEGAEVEFDEETGEVHIRVKVDGKEYRFTFKNGEIVEVEEVSAG [r5_22_TrROS_Hall]” the “folding stability dG unfold” value [1] was 3.23 ± 0.26 kcal/mol, the “folding stability dG unfold” value [2] was 3.73 ± 0.3 kcal/mol and the “folding stability dG unfold” value [3] was 4.3 ± 0.066 kcal/mol.

With “SAGMMLIEVEKNGEPVEVAEVKDDEITITLPKEKVRIRIVNADTGEEVEAEATVEDGTITIKLPPGVKLSAG [r5_469_TrROS_Hall]” the “folding stability dG unfold” value [1] was 0.669 ± 0.077 kcal/mol, the “folding stability dG unfold” value [2] was 0.232 ± 0.19 kcal/mol and the “folding stability dG unfold” value [3] was -0.794 ± 0.45 kcal/mol.

With “SAGMMTIEIELKNGKKIKIEVEKKNGKYIIKITVYDKNGKKVKEVKIEVPKKNMSLEEIIKEALKKLLKSAG [r5_630_TrROS_Hall]” the “folding stability dG unfold” value [1] was 2.83 ± 0.2 kcal/mol, the “folding stability dG unfold” value [2] was 3.73 ± 0.47 kcal/mol and the “folding stability dG unfold” value [3] was 3.71 ± 0.28 kcal/mol.

For “SAGMMTVEELKEKLKEAAEKAGVKVKEIKITGPDGKEITVEVDLSEEQLKKLAEELGLEIDEVEVREPSAGG [r19_50_TrROS_Hall]”, the “folding stability dG unfold” value [1] was 1.3 ± 0.099 kcal/mol, the “folding stability dG unfold” value [2] was 1.67 ± 0.2 kcal/mol and the “folding stability dG unfold” value [3] was 1.75 ± 0.092 kcal/mol.
